Results reported in US20220332804A1 (CSL INNOVATION, published 2022).

Columns and labels:
Experiment in all cases: SPR; KD relative to WT C2;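 also: biacore SPR at 37 °C, anti-C2 mAbs captured on an anti-human IgG chip, alanine or serine C2 surface mutants tested, KD from 1:1 fit compared with wild-type C2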
human C2 K244A = molecular target: T1, human C2 K244A (human, UniProt P06681 21-752)
T1 sequence: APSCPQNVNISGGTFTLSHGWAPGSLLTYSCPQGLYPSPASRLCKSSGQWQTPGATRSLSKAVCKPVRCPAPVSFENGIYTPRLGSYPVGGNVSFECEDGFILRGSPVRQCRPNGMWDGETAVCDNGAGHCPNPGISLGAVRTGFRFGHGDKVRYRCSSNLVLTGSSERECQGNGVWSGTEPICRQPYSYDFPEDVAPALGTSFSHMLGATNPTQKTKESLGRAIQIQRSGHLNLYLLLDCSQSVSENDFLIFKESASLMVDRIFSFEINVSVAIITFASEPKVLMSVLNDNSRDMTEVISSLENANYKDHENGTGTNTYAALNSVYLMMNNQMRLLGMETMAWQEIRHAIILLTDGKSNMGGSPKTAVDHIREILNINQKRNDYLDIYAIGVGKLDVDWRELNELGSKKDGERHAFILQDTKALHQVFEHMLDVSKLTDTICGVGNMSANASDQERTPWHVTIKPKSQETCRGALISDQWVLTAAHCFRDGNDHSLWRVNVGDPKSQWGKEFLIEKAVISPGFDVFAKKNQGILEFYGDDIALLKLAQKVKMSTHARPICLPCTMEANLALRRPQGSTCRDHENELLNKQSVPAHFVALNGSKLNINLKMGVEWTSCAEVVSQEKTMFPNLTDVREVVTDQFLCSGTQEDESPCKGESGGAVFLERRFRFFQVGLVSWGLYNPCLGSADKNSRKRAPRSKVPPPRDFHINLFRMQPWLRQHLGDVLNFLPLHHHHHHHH

human C2 Y328A = molecular target: T2, human C2 Y328A (human, UniProt P06681 21-752)
T2 sequence: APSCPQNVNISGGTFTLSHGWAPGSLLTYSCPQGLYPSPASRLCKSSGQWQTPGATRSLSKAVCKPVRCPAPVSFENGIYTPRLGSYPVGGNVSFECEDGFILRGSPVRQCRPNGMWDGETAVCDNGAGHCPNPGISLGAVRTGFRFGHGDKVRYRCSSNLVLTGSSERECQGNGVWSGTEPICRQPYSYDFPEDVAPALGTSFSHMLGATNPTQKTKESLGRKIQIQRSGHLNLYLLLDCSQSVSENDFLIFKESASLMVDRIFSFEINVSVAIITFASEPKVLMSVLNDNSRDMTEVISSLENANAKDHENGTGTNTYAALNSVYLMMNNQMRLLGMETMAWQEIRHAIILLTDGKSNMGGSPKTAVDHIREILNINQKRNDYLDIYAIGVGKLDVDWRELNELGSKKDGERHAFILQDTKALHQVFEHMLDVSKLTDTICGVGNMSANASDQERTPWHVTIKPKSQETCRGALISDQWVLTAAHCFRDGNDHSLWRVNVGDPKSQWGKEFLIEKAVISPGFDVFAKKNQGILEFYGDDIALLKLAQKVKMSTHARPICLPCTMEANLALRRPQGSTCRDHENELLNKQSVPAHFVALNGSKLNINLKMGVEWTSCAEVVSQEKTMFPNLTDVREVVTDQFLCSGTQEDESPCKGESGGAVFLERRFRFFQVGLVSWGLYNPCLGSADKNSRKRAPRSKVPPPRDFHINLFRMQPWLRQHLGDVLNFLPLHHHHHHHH

human C2 D404A = molecular target: T3, human C2 D404A (human, UniProt P06681 21-752)
T3 sequence: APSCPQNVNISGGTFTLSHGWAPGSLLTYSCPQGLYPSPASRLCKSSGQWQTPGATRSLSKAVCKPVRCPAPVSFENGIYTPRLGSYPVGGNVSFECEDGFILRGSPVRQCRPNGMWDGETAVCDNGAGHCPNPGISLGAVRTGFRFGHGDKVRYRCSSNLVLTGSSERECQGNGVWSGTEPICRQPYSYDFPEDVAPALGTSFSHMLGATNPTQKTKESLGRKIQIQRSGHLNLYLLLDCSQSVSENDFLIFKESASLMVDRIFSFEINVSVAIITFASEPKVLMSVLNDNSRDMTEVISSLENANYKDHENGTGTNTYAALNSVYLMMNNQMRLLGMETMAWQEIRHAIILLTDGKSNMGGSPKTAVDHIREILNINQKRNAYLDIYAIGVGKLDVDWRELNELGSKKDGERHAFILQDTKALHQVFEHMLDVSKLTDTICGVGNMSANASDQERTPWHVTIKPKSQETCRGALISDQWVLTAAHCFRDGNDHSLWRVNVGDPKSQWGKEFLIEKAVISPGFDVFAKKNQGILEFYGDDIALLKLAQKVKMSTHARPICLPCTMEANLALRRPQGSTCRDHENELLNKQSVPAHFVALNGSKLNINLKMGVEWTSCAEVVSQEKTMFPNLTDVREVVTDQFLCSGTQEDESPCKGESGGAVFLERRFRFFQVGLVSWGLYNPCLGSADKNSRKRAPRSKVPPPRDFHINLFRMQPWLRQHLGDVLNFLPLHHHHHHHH

human C2 G414A = molecular target: T4, human C2 G414A (human, UniProt P06681 21-752)
T4 sequence: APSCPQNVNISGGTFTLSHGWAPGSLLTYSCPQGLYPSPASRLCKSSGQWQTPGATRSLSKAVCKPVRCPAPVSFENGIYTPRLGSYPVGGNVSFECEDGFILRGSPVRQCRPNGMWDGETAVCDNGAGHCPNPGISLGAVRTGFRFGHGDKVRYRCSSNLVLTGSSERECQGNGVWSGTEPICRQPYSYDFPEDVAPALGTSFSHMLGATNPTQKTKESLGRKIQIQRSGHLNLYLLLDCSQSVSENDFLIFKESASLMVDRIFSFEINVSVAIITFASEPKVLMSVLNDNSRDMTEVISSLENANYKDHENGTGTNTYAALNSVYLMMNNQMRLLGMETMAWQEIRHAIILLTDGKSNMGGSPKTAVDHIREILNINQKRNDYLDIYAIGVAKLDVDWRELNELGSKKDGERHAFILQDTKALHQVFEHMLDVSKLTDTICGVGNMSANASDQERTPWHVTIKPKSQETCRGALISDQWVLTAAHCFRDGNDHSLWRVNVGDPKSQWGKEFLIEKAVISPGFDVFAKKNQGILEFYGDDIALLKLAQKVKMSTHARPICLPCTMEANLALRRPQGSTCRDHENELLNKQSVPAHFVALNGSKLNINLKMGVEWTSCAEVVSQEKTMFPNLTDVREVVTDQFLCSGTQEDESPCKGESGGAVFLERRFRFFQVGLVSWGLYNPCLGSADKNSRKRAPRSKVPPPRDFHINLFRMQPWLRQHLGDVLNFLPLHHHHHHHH

Fold diff (human C2 K244A): 3 fold
Fold diff (human C2 Y328A): 6 fold
Fold diff (human C2 D404A): 3 fold
Fold diff (human C2 G414A): 0 fold
B1: RF16-214 (antibody, V domains shown)
VH: EVQLLESGGGLVQPGGSLRLSCAASGFTFSWYQMMWVRQAPGKGLEWVSRIYPSGGGTAYADSVKGRFTISRDNSKNTLYLQMNSLRAEDTAVYYCARDAGYGDNWGQGTLVTVSS
VL: QSALTQPPSVSVSPGQTASITCSGDKLGEKYASWYQQKAGQSPVMVIYQDRKRPSGIPERFSGSNSGNTATLTISGTQAMDEADYYCQAWDTRAVVFGGGTKLTVLG
